# Measurements as given in paper PMC9518701 (2022).
# Assays:
# [1] = target: SARS-CoV-2 spike protein receptor binding domain (RBD) (SARS-CoV-2, UniProt P0DTC2 319-541)
# [2] = target: human neonatal Fc receptor (FcRn) (human, UniProt P55899 24-365); assay: SPR; pH 6.0
# Sequence of human neonatal Fc receptor (FcRn) (P55899 24-297, chain 1 of 2): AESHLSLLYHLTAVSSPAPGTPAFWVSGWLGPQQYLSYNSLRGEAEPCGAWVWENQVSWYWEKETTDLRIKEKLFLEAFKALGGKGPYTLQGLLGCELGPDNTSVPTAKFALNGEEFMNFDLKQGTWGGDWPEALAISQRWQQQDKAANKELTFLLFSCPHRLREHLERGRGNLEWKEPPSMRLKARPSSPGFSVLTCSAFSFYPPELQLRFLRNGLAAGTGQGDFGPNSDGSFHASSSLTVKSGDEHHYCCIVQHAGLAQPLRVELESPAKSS
# Sequence of human neonatal Fc receptor (FcRn) (chain, as listed by the source, chain 2 of 2): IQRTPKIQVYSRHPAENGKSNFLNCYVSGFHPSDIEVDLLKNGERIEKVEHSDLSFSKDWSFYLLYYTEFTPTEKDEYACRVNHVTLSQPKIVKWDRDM
Binder,IC50 [1] [nM],Kd [2] [nM]
romlusevimab (BRII-198) (antibody) chain 1: QVQLVQSGSELKKPGASVKVSCKASGYTFTTYVMNWVRQAPGQGLEWMGWINTNTGNPTYAQGFTGRFVFSLDTSVSTASLQISSLKAEDTAVYYCSSEITTLGGMDVWGQGTTVTVSS chain 2: SYVLTQPPSVSVAPGKTARITCGGNNIGSKSVHWYQQKPGQAPVLVIYYDSDRPSGIPERFSGSNSGNTATLTISGVEAGDEADYYCQVWDSISDHRVFGGGTKLTVL,> 200,–
"P2B-1G5 (precursor of romlusevimab) (antibody, soluble extracellular FCGRT with beta-2-microglobulin assumed by convention (subunits and limits not given); assayed at pH 6.0) chain 1: QVQLVQSGSELKKPGASVKVSCKASGYTFTTYVMNWVRQAPGQGLEWMGWINTNTGNPTYAQGFTGRFVFSLDTSVSTASLQISSLKAEDTAVYYCSCEITTLGGMDVWGQGTTVTVSS chain 2: SYVLTQPPSVSVAPGKTARITCGGNNIGSKSVHWYQQKPGQAPVLVIYYDSDRPSGIPERFSGSNSGNTATLTISGVEAGDEADYYCQVWDSISDHRVFGGGTKLTVL",–,2.51
